Test results reported in the domain aggregation screens of Martell et al. (2025).

Test: soluble fraction after stress (log2 fold change); higher = more stays soluble; pooled small domains, quantitative proteomics
Conditions: stress: pH 4
Summary of the method: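 With high-throughput quantitative proteomics, pooled custom libraries of small protein domains were measured after pH 4 stress. Each domain's soluble amount after the stress gives a fold change taken as aggregation propensity. Higher log2 values mean more of the domain stayed soluble.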

| Sequence | soluble fraction (log2) |
| --- | --- |
| HMELTKAELEVMQILWKLKKAFVGDILDRMVEPKPAYNTVSTVVRLLEKKGVVGHESFGKSHRYYPL | -0.0549 |
| HMENTIESLLKAKGFNDIIVTVSDKQVDVVVSDKEIADNKRAQIEDVIKRKTGLEASAITITPA | -0.332 |
| HMFIGFLHQLKEAGVPVSIREYLDFLSGLDKGITNLNTNSFYHFARASLVKDERHYDRFDRTFSEFFEGAL | -1.71 |
| HMTELKKTAVDTWVKDLGTEQALAKLDTLAVVKLRRLAREYKAFGIAGRAISKADKGMLLAEFRAYYEN | 0.171 |
| HMAEVALFVNGSDVNLRSGPGQESTRVIGSLNLGDEVRIKSQNGQWREVYVPKTRQVGWVAHWLLSEAPP | -0.527 |
| HMTSAHEKAFDLFDGGKLSEKALLIAVGAERSGFELAGDLRLRTLTAFEDGRLSEDAMIKLL | -1.5 |
| HMEDIASESVKRVIRKIIDDEDKKSPLSDQAIVEILAKGEGIVIARRTVAKYREMMGILPSSKRKKH | 0.0959 |
| HMQQIEIEEPITVKNLSAVAGLKASEIIAKLMKLGVMSTINQVMERQHAEEIAGEYGFELVVK | -0.154 |
| HMHKFMEQNQDRRLSRMKELIGILSEAAKTYYQESREIMSNFQYDRMYDELLELEKETGVVMAGSPTQKV | -0.98 |
| HMTTTAGTAVVQTGNSGKLNLREQAYSNAGILGRYSNGTIVTVLQKGSAWSYVEVQGQKGYMMSKFLRFT | -0.386 |
| HMPQGFEDLTEREREVLTLIAEGRTNQEIADALVISIKTVNRHRENIMAKLNLHSRVELVRYAIAQGLI | -0.723 |
| HMTAQGDSSDAVQRAITEILRHEDPSHPFSDQQLVIKLRTMDISVSRRTVTKYRKLLHIPSSTHRK | 0.0972 |
| HMTGEEVLIMLGEKMKLIRNYNGYSQRQIAEILKIERSTYASYETGRNRPDIFAVQRFAKIFNVSVDYIL | -0.877 |
| HMSEFAYPISLNGKTKFNLALSLALTKEEIEKEVLANADVQKFLNGQTPKKLIVVPGKIVNVV | 0.123 |
| HMRTIGDSVYEKIKYDIVHLTLKPGEKLSEASLAEKYGISKAPIRVALRKLQEEGLIVIRPQSGSIVSP | 0.0262 |
| HMNTEKRVFAGVENTRLDHFLVEQFPEFSRTFIQQMIKSANVIVNGNIEKASYKLREGDTIMTRPM | -0.0899 |
| HMSERVVEIDPSQLRPGLFIRLPSGWMNHPFLFNQFRINSAEQVEIIQKLGLKTVQYLPERSSTQALPRA | -0.644 |
| HMQKDAYVPDIISKLKSSRMIVVEGTIYPLLTRLKNTGLLSYRWEESLQGPPRKYYSITEQG | -0.0816 |
| HMRGETSYANDIIKRLKQANLIVVEGTLYPLLNRLKKDGLLHYEWRESQQGPPRKYYGLTEEGEA | 0.0328 |
| HMQDKLLRKKEVLEMVSITNSTMYRMIGSGQFPRPIRLDNANINSGVRWKLSEINTFIEQRF | -0.893 |
| HMLPLIEVPAVTGKYLTKAKSALKDAGLDTGDIKRVEHEEHGENYVLKQDPPAGTKVPFGTTVSLTVVAP | 0.15 |
| HMKQVNVVSVIGQSEANAKTTLTGLGLKVNVAYEEDTSKADGIVLKQSLEGGKTVNEGTTITITVNKIA | -0.567 |
| HMGGEAEVLQSIDEGREVEVRSVAADGSAEVIYRGARWRARAAVGSLAAGRWTIGRVDGTELVLEK | 0.215 |
| HMDSVEYRVITGDDVNFRKGPSTDYASLGKLNKGYKVEYISETNSWSKVKYNGQTGYVYSKYVAQT | -0.262 |
| HMGIRYQLADDVTDEQITAMTGKKAKIAAAIKAAGSAVSKMNVAGEMGYDKQNPINKDFMELVDAGIIVPS | -0.121 |
| HMEPPPSYSALLKQISSGKVKELQLVPARREVIVTYPDGRSATVAILANDQQILRTAEAAGTPLLVK | 0.326 |
| HMDVLFGNRLRQLLDERNISQAHFADRIGVSRSRMNNYVAQRSEPDYATLIRIANTLDTSIDFLLGKS | -0.45 |
| HMKMTIEDLITQAKESNAAENYYEAFQLYSKAIDVLPNDPDLYSARGVVLFHLDRKEDSLIDMNKSVD | -0.879 |
| HMAIDYYQTLINLGYKLQDRGDYWQTSAIHRGGDNPTALQIYKNTGVWKDYVSGGGFKPFKALVEKSD | -0.35 |
| HMHTADDFKQLAKQTSNGQLRTRYLALYLFKNGETRTQIATYLGVARGSVNTWVSNYLAHGLEGLQSKP | 0.0388 |
